According to publication PMC9482650, “Quantitative fragmentomics allow affinity mapping of interactomes” (Nature Communications, 2022):

What was measured:
Assay in all cases: holdup assay
Design in all cases: key: below the threshold = too weak to quantify, mostly under pKd 3.1 to 4
SCRIB_3, Q14160 = molecular target: SCRIB_3, Q14160
GRIP2_4, Q9C0E4 = molecular target: GRIP2_4, Q9C0E4
Inadl_9, Q8NI35 = molecular target: Inadl_9, Q8NI35
FRMPD3, Q5JV73 = molecular target: FRMPD3, Q5JV73
AHNAK1, Q09666 = molecular target: AHNAK1, Q09666
APBA2_1, Q99767 = molecular target: T1, APBA2_1, Q99767
T1 sequence (Q99767 563-664, limits assumed, looked up): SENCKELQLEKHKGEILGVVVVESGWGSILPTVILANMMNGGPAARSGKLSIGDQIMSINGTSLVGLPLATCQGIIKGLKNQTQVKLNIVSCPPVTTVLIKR

MAGI2_3, Q86UL8 = molecular target: MAGI2_3, Q86UL8
MAGI2_4, Q86UL8 = molecular target: MAGI2_4, Q86UL8
PTPN13_1, Q12923 = molecular target: T2, PTPN13_1, Q12923
T2 sequence (Q12923 1088-1188, limits assumed, looked up): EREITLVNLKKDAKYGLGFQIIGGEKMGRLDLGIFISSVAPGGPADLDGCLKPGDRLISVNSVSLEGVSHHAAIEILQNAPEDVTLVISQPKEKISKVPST

MAGI2_2, Q86UL8 = molecular target: MAGI2_2, Q86UL8
HTRA3, P83110 = molecular target: T3, HTRA3, P83110
T3 sequence (P83110 354-453, limits assumed, looked up): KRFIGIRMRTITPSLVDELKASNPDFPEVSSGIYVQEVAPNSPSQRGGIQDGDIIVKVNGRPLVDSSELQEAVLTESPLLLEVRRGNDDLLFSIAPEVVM

MAGI2_5, Q86UL8 = molecular target: MAGI2_5, Q86UL8
ARHGEF12, Q9NZN5-2 = molecular target: ARHGEF12, Q9NZN5-2
DLG4_3, P78352 = molecular target: DLG4_3, P78352
NHERF2_2, Q15599 = molecular target: NHERF2_2, Q15599
APBA1_2, Q02410 = molecular target: T4, APBA1_2, Q02410
T4 sequence (Q02410 742-832, limits assumed, looked up): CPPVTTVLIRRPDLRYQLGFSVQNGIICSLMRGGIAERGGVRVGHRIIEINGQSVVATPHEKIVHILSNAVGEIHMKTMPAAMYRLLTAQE

Inadl_4, Q8NI35 = molecular target: Inadl_4, Q8NI35
Inadl_3, Q8NI35 = molecular target: Inadl_3, Q8NI35
LNX2_2, Q8N448 = molecular target: T5, LNX2_2, Q8N448
T5 sequence (Q8N448 334-432, limits assumed, looked up): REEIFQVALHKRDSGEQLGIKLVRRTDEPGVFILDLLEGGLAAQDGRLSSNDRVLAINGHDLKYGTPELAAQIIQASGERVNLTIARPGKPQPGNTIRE

SHANK1, Q9Y566 = molecular target: T6, SHANK1, Q9Y566
T6 sequence (Q9Y566 658-767, limits assumed, looked up): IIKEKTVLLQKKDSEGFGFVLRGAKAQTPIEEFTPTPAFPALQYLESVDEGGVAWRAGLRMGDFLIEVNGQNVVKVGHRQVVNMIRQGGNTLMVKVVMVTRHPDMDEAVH

MAST1, Q9Y2H9 = molecular target: MAST1, Q9Y2H9
LNX1_3, Q8TBB1 = molecular target: LNX1_3, Q8TBB1
DLG5_1, Q8TDM6 = molecular target: DLG5_1, Q8TDM6
PDZRN3_1, Q9UPQ7 = molecular target: T7, PDZRN3_1, Q9UPQ7
T7 sequence (Q9UPQ7 244-349, limits assumed, looked up): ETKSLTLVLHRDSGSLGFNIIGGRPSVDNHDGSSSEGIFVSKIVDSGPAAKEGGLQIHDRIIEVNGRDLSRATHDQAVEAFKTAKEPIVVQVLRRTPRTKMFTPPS

MAGI1_1, Q96QZ7 = molecular target: MAGI1_1, Q96QZ7
ARHGEF11, O15085 = molecular target: T8, ARHGEF11, O15085
T8 sequence (O15085 42-136, limits assumed, looked up): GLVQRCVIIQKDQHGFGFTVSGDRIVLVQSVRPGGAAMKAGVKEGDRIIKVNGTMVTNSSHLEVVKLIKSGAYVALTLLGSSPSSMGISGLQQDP

NOS1, P29475 = molecular target: NOS1, P29475
HTRA4, P83105 = molecular target: T9, HTRA4, P83105
T9 sequence (P83105 378-476, limits assumed, looked up): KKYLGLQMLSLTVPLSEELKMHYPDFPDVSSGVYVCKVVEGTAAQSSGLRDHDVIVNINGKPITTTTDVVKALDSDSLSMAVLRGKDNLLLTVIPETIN

[1] = plain residues with an end cap or a label only (N-terminal biotin on a linker: ahx)
[2] = plain residues with an end cap or a label only (N-terminal biotin on a linker: ttds)
[3] = plain residues with an end cap or a label only (N-terminal biotin on a linker: ado-ado)

Chain of Inadl_9, Q8NI35 (Q8NI35 1530-1615): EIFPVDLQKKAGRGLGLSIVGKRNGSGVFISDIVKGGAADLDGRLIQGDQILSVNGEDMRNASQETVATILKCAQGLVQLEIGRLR
Chain of MAGI2_4, Q86UL8 (Q86UL8 772-865): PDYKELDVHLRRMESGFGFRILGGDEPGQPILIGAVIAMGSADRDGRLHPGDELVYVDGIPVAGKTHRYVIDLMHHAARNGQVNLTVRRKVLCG
Chain of ARHGEF12, Q9NZN5-2 (Q9NZN5 other isoform, or with tags, fused parts or gaps): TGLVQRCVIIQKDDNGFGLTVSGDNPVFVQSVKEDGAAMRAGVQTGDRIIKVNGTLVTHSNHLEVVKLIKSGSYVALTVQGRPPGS
Chain of GRIP2_4, Q9C0E4 (Q9C0E4 446-548): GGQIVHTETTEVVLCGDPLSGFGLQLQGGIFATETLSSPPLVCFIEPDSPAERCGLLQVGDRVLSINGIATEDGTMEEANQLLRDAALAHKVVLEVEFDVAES
Chain of MAGI1_1, Q96QZ7 (Q96QZ7 1-106): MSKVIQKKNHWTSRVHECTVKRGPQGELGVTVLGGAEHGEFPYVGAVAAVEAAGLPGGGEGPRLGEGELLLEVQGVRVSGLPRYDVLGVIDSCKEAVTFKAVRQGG
Chain of MAGI2_5, Q86UL8 (Q86UL8 915-1017): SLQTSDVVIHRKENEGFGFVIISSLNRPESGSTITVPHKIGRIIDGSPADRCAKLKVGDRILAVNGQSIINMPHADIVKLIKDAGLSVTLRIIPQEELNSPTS
Chain of NOS1, P29475 (P29475 9-101): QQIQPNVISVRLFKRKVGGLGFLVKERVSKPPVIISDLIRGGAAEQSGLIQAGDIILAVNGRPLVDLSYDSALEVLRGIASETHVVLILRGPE
Chain of DLG5_1, Q8TDM6 (Q8TDM6 617-713): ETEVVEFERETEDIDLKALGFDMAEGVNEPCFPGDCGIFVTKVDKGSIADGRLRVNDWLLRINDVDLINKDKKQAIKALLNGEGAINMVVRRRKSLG
Chain of MAGI2_2, Q86UL8 (Q86UL8 410-522): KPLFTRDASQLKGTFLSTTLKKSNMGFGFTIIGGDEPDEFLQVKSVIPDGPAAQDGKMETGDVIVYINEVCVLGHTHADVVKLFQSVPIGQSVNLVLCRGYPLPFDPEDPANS
Chain of MAGI2_3, Q86UL8 (Q86UL8 600-682): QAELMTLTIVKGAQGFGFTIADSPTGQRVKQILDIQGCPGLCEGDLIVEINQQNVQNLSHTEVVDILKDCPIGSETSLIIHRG
Chain of LNX1_3, Q8TBB1 (Q8TBB1 500-596): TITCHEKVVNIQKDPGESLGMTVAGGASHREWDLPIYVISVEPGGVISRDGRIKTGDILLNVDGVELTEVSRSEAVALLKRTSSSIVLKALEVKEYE
Chain of FRMPD3, Q5JV73 (Q5JV73 12-100): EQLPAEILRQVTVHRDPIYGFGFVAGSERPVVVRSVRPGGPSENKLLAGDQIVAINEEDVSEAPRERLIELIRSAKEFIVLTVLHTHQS
Chain of NHERF2_2, Q15599 (Q15599 142-238): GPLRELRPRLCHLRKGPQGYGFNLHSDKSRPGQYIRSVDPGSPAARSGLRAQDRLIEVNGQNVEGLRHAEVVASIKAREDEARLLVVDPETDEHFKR
Chain of SCRIB_3, Q14160 (Q14160 999-1103): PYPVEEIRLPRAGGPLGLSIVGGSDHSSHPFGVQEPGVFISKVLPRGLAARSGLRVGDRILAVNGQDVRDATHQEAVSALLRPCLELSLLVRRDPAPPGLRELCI
Chain of MAST1, Q9Y2H9 (Q9Y2H9 962-1065): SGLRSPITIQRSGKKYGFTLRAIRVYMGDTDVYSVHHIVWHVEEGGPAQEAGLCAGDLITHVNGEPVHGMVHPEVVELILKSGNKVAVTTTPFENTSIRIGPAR
Chain of Inadl_4, Q8NI35 (Q8NI35 547-651): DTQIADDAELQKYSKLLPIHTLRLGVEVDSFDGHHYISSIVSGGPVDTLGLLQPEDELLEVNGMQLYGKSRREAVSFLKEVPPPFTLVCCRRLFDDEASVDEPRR
Chain of AHNAK1, Q09666 (Q09666 4-100): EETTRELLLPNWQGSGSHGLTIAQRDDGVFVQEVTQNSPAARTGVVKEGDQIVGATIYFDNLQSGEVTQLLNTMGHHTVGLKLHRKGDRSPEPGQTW
Chain of DLG4_3, P78352 (P78352 306-403): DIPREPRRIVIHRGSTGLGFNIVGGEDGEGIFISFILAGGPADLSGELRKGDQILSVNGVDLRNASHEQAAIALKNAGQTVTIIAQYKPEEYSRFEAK
Chain of Inadl_3, Q8NI35 (Q8NI35 359-469): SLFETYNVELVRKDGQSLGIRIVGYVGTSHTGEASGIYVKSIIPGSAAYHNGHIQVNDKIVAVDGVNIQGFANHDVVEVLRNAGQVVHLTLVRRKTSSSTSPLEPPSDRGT

B1: CNTNAP4, Q9C0A0 (peptide)
chain: VNENQKEYFF
SCRIB_3, Q14160; [1]
  pKd: 3.7
GRIP2_4, Q9C0E4; [1]
  pKd: below the threshold
Inadl_9, Q8NI35; [1]
  pKd: below the threshold
FRMPD3, Q5JV73; [1]
  pKd: 4.66
AHNAK1, Q09666; [1]
  pKd: below the threshold
APBA2_1, Q99767; [1]
  pKd: below the threshold
MAGI2_3, Q86UL8; [1]
  pKd: below the threshold
MAGI2_4, Q86UL8; [1]
  pKd: 3.55
PTPN13_1, Q12923; [1]
  pKd: below the threshold
MAGI2_2, Q86UL8; [1]
  pKd: below the threshold
HTRA3, P83110; [1]
  pKd: below the threshold
MAGI2_5, Q86UL8; [1]
  pKd: 3.54
ARHGEF12, Q9NZN5-2; [1]
  pKd: below the threshold
DLG4_3, P78352; [1]
  pKd: below the threshold
NHERF2_2, Q15599; [1]
  pKd: below the threshold
APBA1_2, Q02410; [1]
  pKd: 4.47
Inadl_4, Q8NI35; [1]
  pKd: below the threshold
Inadl_3, Q8NI35; [1]
  pKd: 3.95
LNX2_2, Q8N448; [1]
  pKd: below the threshold
SHANK1, Q9Y566; [1]
  pKd: below the threshold
MAST1, Q9Y2H9; [1]
  pKd: 4.3
LNX1_3, Q8TBB1; [1]
  pKd: below the threshold
DLG5_1, Q8TDM6; [1]
  pKd: below the threshold
PDZRN3_1, Q9UPQ7; [1]
  pKd: below the threshold
MAGI1_1, Q96QZ7; [1]
  pKd: below the threshold
ARHGEF11, O15085; [1]
  pKd: below the threshold
NOS1, P29475; [1]
  pKd: 3.83
HTRA4, P83105; [1]
  pKd: below the threshold

B2: RALBP1, Q15311 (peptide)
chain: PSRDRKETSI
SCRIB_3, Q14160; [2]
  pKd: 4.97
GRIP2_4, Q9C0E4; [2]
  pKd: below the threshold
Inadl_9, Q8NI35; [2]
  pKd: below the threshold
FRMPD3, Q5JV73; [2]
  pKd: below the threshold
AHNAK1, Q09666; [2]
  pKd: below the threshold
APBA2_1, Q99767; [2]
  pKd: below the threshold
MAGI2_3, Q86UL8; [2]
  pKd: below the threshold
MAGI2_4, Q86UL8; [2]
  pKd: below the threshold
PTPN13_1, Q12923; [2]
  pKd: below the threshold
MAGI2_2, Q86UL8; [2]
  pKd: 4.03
HTRA3, P83110; [2]
  pKd: below the threshold
MAGI2_5, Q86UL8; [2]
  pKd: below the threshold
ARHGEF12, Q9NZN5-2; [2]
  pKd: 4.06
DLG4_3, P78352; [2]
  pKd: 4.87
NHERF2_2, Q15599; [2]
  pKd: below the threshold
APBA1_2, Q02410; [2]
  pKd: 3.32
Inadl_4, Q8NI35; [2]
  pKd: below the threshold
Inadl_3, Q8NI35; [2]
  pKd: below the threshold
LNX2_2, Q8N448; [2]
  pKd: below the threshold
SHANK1, Q9Y566; [2]
  pKd: below the threshold
MAST1, Q9Y2H9; [2]
  pKd: 4.56
LNX1_3, Q8TBB1; [2]
  pKd: below the threshold
DLG5_1, Q8TDM6; [2]
  pKd: below the threshold
PDZRN3_1, Q9UPQ7; [2]
  pKd: 4.37
MAGI1_1, Q96QZ7; [2]
  pKd: below the threshold
ARHGEF11, O15085; [2]
  pKd: below the threshold
NOS1, P29475; [2]
  pKd: 3.52
HTRA4, P83105; [2]
  pKd: below the threshold

B3: CBY2, Q8NA61 (peptide)
chain: SQDPKKPSRV
SCRIB_3, Q14160; [3]
  pKd: below the threshold
GRIP2_4, Q9C0E4; [3]
  pKd: below the threshold
Inadl_9, Q8NI35; [3]
  pKd: 4.08
FRMPD3, Q5JV73; [3]
  pKd: below the threshold
AHNAK1, Q09666; [3]
  pKd: below the threshold
APBA2_1, Q99767; [3]
  pKd: below the threshold
MAGI2_3, Q86UL8; [3]
  pKd: below the threshold
MAGI2_4, Q86UL8; [3]
  pKd: below the threshold
PTPN13_1, Q12923; [3]
  pKd: below the threshold
MAGI2_2, Q86UL8; [3]
  pKd: 4.38
HTRA3, P83110; [3]
  pKd: below the threshold
MAGI2_5, Q86UL8; [3]
  pKd: below the threshold
ARHGEF12, Q9NZN5-2; [3]
  pKd: below the threshold
DLG4_3, P78352; [3]
  pKd: below the threshold
NHERF2_2, Q15599; [3]
  pKd: below the threshold
APBA1_2, Q02410; [3]
  pKd: 3.97
Inadl_4, Q8NI35; [3]
  pKd: below the threshold
Inadl_3, Q8NI35; [3]
  pKd: below the threshold
LNX2_2, Q8N448; [3]
  pKd: below the threshold
SHANK1, Q9Y566; [3]
  pKd: below the threshold
MAST1, Q9Y2H9; [3]
  pKd: below the threshold
LNX1_3, Q8TBB1; [3]
  pKd: below the threshold
DLG5_1, Q8TDM6; [3]
  pKd: below the threshold
PDZRN3_1, Q9UPQ7; [3]
  pKd: 3.56
MAGI1_1, Q96QZ7; [3]
  pKd: 3.49
ARHGEF11, O15085; [3]
  pKd: below the threshold
NOS1, P29475; [3]
  pKd: 3.76
HTRA4, P83105; [3]
  pKd: 3.9

B4: MTMR1, Q13613 (peptide)
chain: HSATSVHTSV
SCRIB_3, Q14160; [1]
  pKd: 3.74
GRIP2_4, Q9C0E4; [1]
  pKd: below the threshold
Inadl_9, Q8NI35; [1]
  pKd: 3.57
FRMPD3, Q5JV73; [1]
  pKd: below the threshold
AHNAK1, Q09666; [1]
  pKd: below the threshold
APBA2_1, Q99767; [1]
  pKd: below the threshold
MAGI2_3, Q86UL8; [1]
  pKd: below the threshold
MAGI2_4, Q86UL8; [1]
  pKd: below the threshold
PTPN13_1, Q12923; [1]
  pKd: below the threshold
MAGI2_2, Q86UL8; [1]
  pKd: 3.48
HTRA3, P83110; [1]
  pKd: below the threshold
MAGI2_5, Q86UL8; [1]
  pKd: 4.02
ARHGEF12, Q9NZN5-2; [1]
  pKd: below the threshold
DLG4_3, P78352; [1]
  pKd: below the threshold
NHERF2_2, Q15599; [1]
  pKd: below the threshold
APBA1_2, Q02410; [1]
  pKd: below the threshold
Inadl_4, Q8NI35; [1]
  pKd: below the threshold
Inadl_3, Q8NI35; [1]
  pKd: 3.7
LNX2_2, Q8N448; [1]
  pKd: 3.96
SHANK1, Q9Y566; [1]
  pKd: below the threshold
MAST1, Q9Y2H9; [1]
  pKd: 3.67
LNX1_3, Q8TBB1; [1]
  pKd: below the threshold
DLG5_1, Q8TDM6; [1]
  pKd: below the threshold
PDZRN3_1, Q9UPQ7; [1]
  pKd: below the threshold
MAGI1_1, Q96QZ7; [1]
  pKd: below the threshold
ARHGEF11, O15085; [1]
  pKd: 3.75
NOS1, P29475; [1]
  pKd: 3.55
HTRA4, P83105; [1]
  pKd: below the threshold

B5: PODXL, O00592 (peptide)
chain: DLDEEEDTHL
SCRIB_3, Q14160; [2]
  pKd: below the threshold
GRIP2_4, Q9C0E4; [2]
  pKd: below the threshold
Inadl_9, Q8NI35; [2]
  pKd: below the threshold
FRMPD3, Q5JV73; [2]
  pKd: 3.6
AHNAK1, Q09666; [2]
  pKd: below the threshold
APBA2_1, Q99767; [2]
  pKd: below the threshold
MAGI2_3, Q86UL8; [2]
  pKd: below the threshold
MAGI2_4, Q86UL8; [2]
  pKd: below the threshold
PTPN13_1, Q12923; [2]
  pKd: below the threshold
MAGI2_2, Q86UL8; [2]
  pKd: below the threshold
HTRA3, P83110; [2]
  pKd: below the threshold
MAGI2_5, Q86UL8; [2]
  pKd: below the threshold
ARHGEF12, Q9NZN5-2; [2]
  pKd: below the threshold
DLG4_3, P78352; [2]
  pKd: below the threshold
NHERF2_2, Q15599; [2]
  pKd: 5.39
APBA1_2, Q02410; [2]
  pKd: below the threshold
Inadl_4, Q8NI35; [2]
  pKd: below the threshold
Inadl_3, Q8NI35; [2]
  pKd: below the threshold
LNX2_2, Q8N448; [2]
  pKd: 3.48
SHANK1, Q9Y566; [2]
  pKd: 4.95
MAST1, Q9Y2H9; [2]
  pKd: 4.19
LNX1_3, Q8TBB1; [2]
  pKd: below the threshold
DLG5_1, Q8TDM6; [2]
  pKd: below the threshold
PDZRN3_1, Q9UPQ7; [2]
  pKd: below the threshold
MAGI1_1, Q96QZ7; [2]
  pKd: below the threshold
ARHGEF11, O15085; [2]
  pKd: below the threshold
NOS1, P29475; [2]
  pKd: below the threshold
HTRA4, P83105; [2]
  pKd: below the threshold
